For the data set, the target named is T1, ScaI restriction endonuclease (Streptomyces caespitosus) (UniProt O52691).
T1 sequence: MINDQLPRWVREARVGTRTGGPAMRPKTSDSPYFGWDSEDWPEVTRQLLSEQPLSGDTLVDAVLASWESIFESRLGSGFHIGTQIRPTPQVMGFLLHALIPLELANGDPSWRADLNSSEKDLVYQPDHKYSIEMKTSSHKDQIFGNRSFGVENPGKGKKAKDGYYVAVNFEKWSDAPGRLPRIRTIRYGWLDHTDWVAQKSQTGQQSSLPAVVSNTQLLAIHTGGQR
The experiment in a line: cleavage_in_vitro. Particulars: diluted cell extract, 1 ug DNA, 37 C, 1 h.

The substance lambda DNA (ScaI sites) returned an activity (units/g wet cells) of 1e+06.

The values above are taken from US5721126.
